B1: 104346 (antibody, V domains shown)
VH: QVQLVESGGGVVQPGRSLRLSCAASGYTFSSYLIEWVRQAPGKGLEWVAVINPGSGGTNYADSVKGRFTISADKSKNTAYLQMNSLRAEDTAVYYCARWRGDGYYAYFDVWGQGTTVTVSS
VL: DIVLTQSPLSLPVTLGQPASISCKASQSVDYDGDSYMNWYQQRPGQSPRLLIYAASNLESGVPDRFSGSGSGTDFTLKISRVEAEDVGVYYCQQSNEDPYTFGGGTKVEIK
notes: VH3s/VK2
B2: 104341 (antibody, V domains shown)
VH: QVQLVQSGAEVKKPGSSVKVSCKASGYAFTNYLIEWVRQAPGQGLEWMGVINPGSGGTNYNEKFKGRVTITADKSTSTAYMELSSLRSEDTAVYYCARWRGDGYYAYFDVWGQGTTVTVSS
VL: AIRLTQSPSSFSASTGDRVTITCKASQSVDYDGDSYMNWYQQKPGKAPKLLIYAASNLESGVPSRFSGSGSGTDFTLTISSLQSEDFATYYCQQSNEDPYTFGGGTKVEIK
notes: VH1/VK1
B3: 104345 (antibody, V domains shown)
VH: B1 VH
VL: B2 VL
notes: VH3s/VK1
B4: 104344 (antibody, V domains shown)
VH: B2 VH
VL: EIVLTQSPATLSVSPGERATLSCRASQSVSYDGDSYMNWYQQKPGQAPRLLIYAASNLASGIPARFSGSGSGTEFTLTISSLQSEDAAVYYCQQSNEDPYTFGGGTKVEIK
notes: VH1/VK3s
B5: 108929 (antibody, human IgG1, kappa, N297A, V domains shown)
VH: EVQLVQSGAEVKKPGESLKISCKGSGYAFSNYLIEWVRQMPGKGLEWMGVINPGSGGTYYNEKFKGQVTISADKSISTAYLQWSSLKASDTAMYYCARWRGEGYYAYFDVWGQGTTVTVSS
VL: AIRLTQSPSSFSASTGDRVTITCKASQSVDYQGDSYMNWYQQKPGKAPKLLIYTASNLESGVPSRFSGSGSGTDFTLTISSLQSEDFATYYCQQSNEDPYTFGGGTKVEIKR
B6: 104350 (antibody, V domains shown)
VH: B5 VH with S30T, Y59N, E102D
VL: B4 VL
notes: VH5/VK3s
B7: Antibody No: 15 (antibody, human IgG1, kappa, N297A, V domains shown)
VH: B5 VH with S30T
VL: B5 VL with M37L, T54S
notes: VH N58Y; VK M33L + A50S; also called 108926
B8: Antibody No: 13 (antibody, human IgG1, kappa, N297A, V domains shown)
VH: B5 VH with S30T
VL: B5 VL with T54S
notes: VH N58Y; VK A50S; also called 108925
B9: Antibody No: 8 (antibody, human IgG1, kappa, N297A, V domains shown)
VH: B5 VH with S30T, Y59N, F108Y
VL: B5 VL with T54S
notes: VK A50S; also called 108923
B10: Antibody No: 12 (antibody, human IgG1, kappa, N297A, V domains shown)
VH: B5 VH with S30T
VL: B5 VL with M37L, T54A
notes: VH N58Y; VK M33L; also called 108924
B11: 108930 (antibody, human IgG1, kappa, N297A, V domains shown)
VH: B5 VH
VL: B5 VL with M37L, T54S
B12: Antibody No: 34 (antibody, human IgG1, kappa, N297A, V domains shown)
VH: B5 VH with F108Y
VL: B5 VL
notes: VK A50T; HEK293F supernatant
B13: Antibody No: 23 (antibody, human IgG1, kappa, N297A, V domains shown)
VH: B5 VH with Y59N, F108Y
VL: B5 VL with T54S
notes: VK A50S; HEK293F supernatant
B14: Antibody No: 27 (antibody, human IgG1, kappa, N297A, V domains shown)
VH: B5 VH
VL: B5 VL with M37L, T54A
notes: VH N58Y + T30S; VK M33L; HEK293F supernatant
B15: Antibody No: 32 (antibody, human IgG1, kappa, N297A, V domains shown)
VH: B5 VH with F108Y
VL: B5 VL with M37L, T54A
notes: VK M33L; HEK293F supernatant
B16: Antibody No: 31 (antibody, human IgG1, kappa, N297A, V domains shown)
VH: B5 VH with F108Y
VL: B5 VL with T54A
notes: VK WT; HEK293F supernatant
B17: Antibody No: 30 (antibody, human IgG1, kappa, N297A, V domains shown)
VH: B5 VH
VL: B5 VL with M37L, T54S
notes: VH N58Y + T30S; VK M33L + A50S; HEK293F supernatant
B18: Antibody No: 29 (antibody, human IgG1, kappa, N297A, V domains shown)
VH: B5 VH
VL: B5 VL
notes: VH N58Y + T30S; VK A50T; HEK293F supernatant
B19: Antibody No: 22 (antibody, human IgG1, kappa, N297A, V domains shown)
VH: B5 VH with Y59N, F108Y
VL: B5 VL with M37L, T54A
notes: VK M33L; HEK293F supernatant
B20: Antibody No: 35 (antibody, human IgG1, kappa, N297A, V domains shown)
VH: B5 VH with F108Y
VL: B5 VL with M37L, T54S
notes: VK M33L + A50S; HEK293F supernatant
B21: Antibody No: 28 (antibody, human IgG1, kappa, N297A, V domains shown)
VH: B5 VH
VL: B5 VL with T54S
notes: VH N58Y + T30S; VK A50S; HEK293F supernatant; 108930 is kept apart
B22: Antibody No: 26 (antibody, human IgG1, kappa, N297A, V domains shown)
VH: B5 VH
VL: B5 VL with T54A
notes: VH N58Y + T30S; VK WT; HEK293F supernatant; 108929 is kept apart
B23: Antibody No: 25 (antibody, human IgG1, kappa, N297A, V domains shown)
VH: B5 VH with Y59N, F108Y
VL: B5 VL with M37L, T54S
notes: as for B20
B24: Antibody No: 33 (antibody, human IgG1, kappa, N297A, V domains shown)
VH: B5 VH with F108Y
VL: B5 VL with T54S
notes: VK A50S; HEK293F supernatant
B25: Antibody No: 24 (antibody, human IgG1, kappa, N297A, V domains shown)
VH: B5 VH with Y59N, F108Y
VL: B5 VL
notes: VK A50T; HEK293F supernatant

Changes are numbered by the printed parent chain. In names and notes the source's numbering stands.

T1 sequence (P60568 other isoform, or with tags, fused parts or gaps limits assumed): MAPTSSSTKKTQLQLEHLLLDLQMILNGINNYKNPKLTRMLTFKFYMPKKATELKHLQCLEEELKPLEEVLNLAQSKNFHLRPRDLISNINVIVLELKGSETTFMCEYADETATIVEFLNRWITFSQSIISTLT

One experiment has as its target T1, Proleukin® (aldesleukin) (human, UniProt P60568 21-153, limits assumed).
T1 construct: Variant of human wt IL-2 with C145S (C125S on mature IL-2); also called IL-2 (Proleukin®); human IL-2 (Proleukin)
Briefly: ELISA, coated Proleukin, mean of 3 experiments. (In general: In an ELISA, binding on a coated surface is turned into a signal by an enzyme label.)
Experimental: ELISA plates (Corning) were coated with human IL-2 (Proleukin) at 10 μg/mL in PBS overnight at 4° C. The plates were washed 6 times with PBST, then blocked in 1% BSA/PBST for 2 hours. After blocking and washing, the anti-human IL-2 antibodies were added on the plate in an 11-point dilution series in 1% BSA/PBST and incubated for 2 hours. […] The plates were then washed again and incubated with Streptavidin-Horseradish Peroxidase in 1% BSA/PBS for 45 minutes. After washing, the substrate (R&D Systems) was added into the plates and the enzymatic reaction was stopped after 3 minutes by adding Stop Solution. The plates were read by a microplate reader at 450 nm with a wavelength correction set to 540 nm.
The term EC50 denotes the midpoint of the concentration-response curve. The low end stands for higher potency in that assay, the high end for lower potency in that assay. Take B1: the EC50 is 1700 pM.
Still for that read-out and setting: with B2 the figure was 400 pM.
Consider B3, for which the 50% effective concentration (EC50) stood at 2900 pM.
Take B4: it took 700 pM to reach a half-maximal effect (EC50).
On the same count and under the same terms, the result for B5 reads 150 pM; that for B6, 800 pM.
The molecule B7 yielded an EC50 of 50 pM.
Molecule B8 yielded an EC50 of 60 pM.
B9: the EC50 was found to be 50 pM.
On to B10, for which the response was half-maximal at 110 pM (EC50).
On the same count and under the same terms, the result for B11 reads 60 pM.

In a further experiment the target is T1, Proleukin® (aldesleukin). The experiment is described as follows: ELISA, coated Proleukin, HEK293F supernatant 1:2.
Experimental: Subsequently, hIL-2 binding efficiency of the antibodies present in the supernatants was determined using ELISA. In brief, ELISA plates (Maxisorp 96-well black microtiter plate) were coated overnight at 4° C. with 100p/well of Proleukin® (5 μg/ml PBS). ELISA plates were washed once with TBST (1×TBS/0.05% Tween 20) using a plate-washer (BioTek). […] After removal of the blocking buffer, plates were washed once with TBST using the plate washer. Supernatants were diluted 1:2 in blocking buffer and 50 μl transferred to the designated well of the ELISA plate. Each sample was present on three ELISA plates. The three plates were incubated at RT under gentle agitation. […] The other two plates were washed either every hour three times with TBST for 4 hours or washed every hour three times for 12 hours before adding the detection antibody. […] Luminescence signal was measured after 5 minutes incubation in the dark. […] All ELISA values are mean values based on two measurements.
As to B7, the “ELISA value (Normal ELISA)” value turned out to be 11100 luminescence signal, the “ELISA value (wash 3x every hour for 4 HRS)” value was found to be 10500 luminescence signal and the “ELISA value (wash 3x every hour for 12 HRS)” value was 3800 luminescence signal.
The like results for B12 were, in that order, 3860 luminescence signal, 3080 luminescence signal and 1360 luminescence signal.
The like results for B13 were, in that order, 6170 luminescence signal, 4640 luminescence signal and 1250 luminescence signal.
Regarding B14, the “ELISA value (Normal ELISA)” value is 7760 luminescence signal, the “ELISA value (wash 3x every hour for 4 HRS)” value stood at 7000 luminescence signal and the “ELISA value (wash 3x every hour for 12 HRS)” value is 2770 luminescence signal.
In the case of B8, the “ELISA value (Normal ELISA)” value turned out to be 14500 luminescence signal, the “ELISA value (wash 3x every hour for 4 HRS)” value was 14600 luminescence signal and the “ELISA value (wash 3x every hour for 12 HRS)” value was 4520 luminescence signal.
The like results for B9 were, in that order, 9370 luminescence signal, 7310 luminescence signal and 2530 luminescence signal.
With B15, the “ELISA value (Normal ELISA)” value turned out to be 7190 luminescence signal, the “ELISA value (wash 3x every hour for 4 HRS)” value is 6210 luminescence signal and the “ELISA value (wash 3x every hour for 12 HRS)” value came out at 3330 luminescence signal.
The like results for B16 were, in that order, 11400 luminescence signal, 10300 luminescence signal and 3400 luminescence signal.
The like results for B17 were, in that order, 14900 luminescence signal, 14400 luminescence signal and 2800 luminescence signal.
The like results for B18 were, in that order, 6950 luminescence signal, 6850 luminescence signal and 2720 luminescence signal.
Regarding B10, the “ELISA value (Normal ELISA)” value stood at 20000 luminescence signal, the “ELISA value (wash 3x every hour for 4 HRS)” value came to 17400 luminescence signal and the “ELISA value (wash 3x every hour for 12 HRS)” value amounted to 5960 luminescence signal.
Turning to B19, the “ELISA value (Normal ELISA)” value came to 3970 luminescence signal, the “ELISA value (wash 3x every hour for 4 HRS)” value turned out to be 3190 luminescence signal and the “ELISA value (wash 3x every hour for 12 HRS)” value was 1200 luminescence signal.
The like results for B20 were, in that order, 4910 luminescence signal, 4040 luminescence signal and 1790 luminescence signal.
Consider B21, for which the “ELISA value (Normal ELISA)” value worked out at 18500 luminescence signal, the “ELISA value (wash 3x every hour for 4 HRS)” value is 18100 luminescence signal and the “ELISA value (wash 3x every hour for 12 HRS)” value is 5870 luminescence signal.
For B22, the “ELISA value (Normal ELISA)” value was 4030 luminescence signal, the “ELISA value (wash 3x every hour for 4 HRS)” value came out at 4210 luminescence signal and the “ELISA value (wash 3x every hour for 12 HRS)” value was found to be 1800 luminescence signal.
The like results for B23 were, in that order, 3570 luminescence signal, 3050 luminescence signal and 1080 luminescence signal.
Take B24: the “ELISA value (Normal ELISA)” value was 3990 luminescence signal, the “ELISA value (wash 3x every hour for 4 HRS)” value was 3570 luminescence signal and the “ELISA value (wash 3x every hour for 12 HRS)” value was 1820 luminescence signal.
In the case of B25, the “ELISA value (Normal ELISA)” value came out at 2770 luminescence signal, the “ELISA value (wash 3x every hour for 4 HRS)” value worked out at 1880 luminescence signal and the “ELISA value (wash 3x every hour for 12 HRS)” value was 674 luminescence signal.

A further experiment has as its target T1, Proleukin® (aldesleukin). The experiment is described as follows: ELISA, coated Proleukin, serially diluted supernatant.
B7 gave an EC50 of 280 pM. This lies in the sub-nanomolar range.
Still for that read-out and setting: the result for B12 reads 650 pM; that for B13, 260 pM; that for B14, 390 pM.
On the same count and under the same terms, the result for B8 reads 190 pM.
Still for that read-out and setting: with B9 the figure was 240 pM; with B15, 650 pM; with B16, 390 pM.
B17: the EC50 turned out to be 220 pM.
The same measure, in the same setting: with B18 the figure was 240 pM.
The molecule B10 had an EC50 of 250 pM.
On the same count and under the same terms, the result for B19 reads 430 pM; that for B20, 720 pM.
Turning to B21, a half-maximal response (EC50) required 160 pM.
Same read-out and setting: the result for B22 reads 490 pM.
On the same count and under the same terms, with B23 the figure was 420 pM; with B24, 670 pM; with B25, 590 pM.

The record behind these values is patent US20210246200A1 (UNIVERSIT T Z RICH, published 2021).
